From patent publication US11629367

Biological target: Mouse IL-11 receptor alpha (Cat. No. MBS553276, MyBioSource, Inc.) (mouse) (UniProt Q64385)
Assay: cell-based or functional assay

UniProt Q64385, sequence (Q64385 24-372): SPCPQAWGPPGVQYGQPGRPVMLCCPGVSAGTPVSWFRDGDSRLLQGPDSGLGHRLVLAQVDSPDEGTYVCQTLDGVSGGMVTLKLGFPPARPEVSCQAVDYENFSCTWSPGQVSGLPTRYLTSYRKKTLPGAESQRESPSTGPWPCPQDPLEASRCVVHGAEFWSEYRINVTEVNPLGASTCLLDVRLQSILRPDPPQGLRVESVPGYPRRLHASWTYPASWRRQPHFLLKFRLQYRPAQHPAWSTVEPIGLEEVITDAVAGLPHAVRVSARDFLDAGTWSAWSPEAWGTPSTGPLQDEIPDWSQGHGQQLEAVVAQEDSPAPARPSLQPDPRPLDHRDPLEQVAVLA

recombinant human IL-11 (rhIL-11) expressed in Pichia pastoris and purified by the described method (from UniProt P20809 22-199) (ligand)
EC50, 7TD1 cell proliferation assay (MTS, absorbance at 490 nM): 2.2 ng/mL

Reference standard of rhIL-11, derived from yeast (Hangzhou Jiuyuan Gene Engineering Company) (from UniProt P20809 23-199) (ligand)
EC50, 7TD1 cell proliferation assay (MTS, absorbance at 490 nM): 1.1 ng/mL
